Test results: US20250179589A1, “SYNTHETIC LETHALITY AND THE TREATMENT OF CANCER” (PACYLEX PHARMACEUTICALS INC., priority 2012, published 2025)

B1: His-NMT1 (recombinant hexahistidine-tagged full-length human N-myristoyltransferase 1) (protein)
chain: MADESETAVKPPAPPLPQMMEGNGNGHEHCSDCENEEDNSYNRGGLSPANDTGAKKKKKKQKKKKEKGSETDSAQDQPVKMNSLPAERIQEIQKAIELFSVGQGPAKTMEEASKRSYQFWDTQPVPKLGEVVNTHGPVEPDKDNIRQEPYTLPQGFTWDALDLGDRGVLKELYTLLNENYVEDDDNMFRFDYSPEFLLWALRPPGWLPQWHCGVRVVSSRKLVGFISAIPANIHIYDTEKKMVEINFLCVHKKLRSKRVAPVLIREITRRVHLEGIFQAVYTAGVVLPKPVGTCRYWHRSLNPRKLIEVKFSHLSRNMTMQRTMKLYRLPETPKTAGLRPMETKDIPVVHQLLTRYLKQFHLTPVMSQEEVEHWFYPQENIIDTFVVENANGEVTDFLSFYTLPSTIMNHPTHKSLKAAYSFYNVHTQTPLLDLMSDALVLAKMKGFDVFNALDLMENKTFLEKLKFGIGDGNLQYYLYNWKCPSMGAEKVGLVLQ
B2: His-73NMT1 (His-tagged caspase-cleaved, truncated human NMT1) (protein)
chain: SAQDQPVKMNSLPAERIQEIQKAIELFSVGQGPAKTMEEASKRSYQFWDTQPVPKLGEVVNTHGPVEPDKDNIRQEPYTLPQGFTWDALDLGDRGVLKELYTLLNENYVEDDDNMFRFDYSPEFLLWALRPPGWLPQWHCGVRVVSSRKLVGFISAIPANIHIYDTEKKMVEINFLCVHKKLRSKRVAPVLIREITRRVHLEGIFQAVYTAGVVLPKPVGTCRYWHRSLNPRKLIEVKFSHLSRNMTMQRTMKLYRLPETPKTAGLRPMETKDIPVVHQLLTRYLKQFHLTPVMSQEEVEHWFYPQENIIDTFVVENANGEVTDFLSFYTLPSTIMNHPTHKSLKAAYSFYNVHTQTPLLDLMSDALVLAKMKGFDVFNALDLMENKTFLEKLKFGIGDGNLQYYLYNWKCPSMGAEKVGLVLQ
B3: His-NMT2 (recombinant hexahistidine-tagged full-length human N-myristoyltransferase 2) (protein)
chain: MAEDSESAASQQSLELDDQDTCGIDGDNEEETEHAKGSPGGYLGAKKKKKKQKRKKEKPNSGGTKSDSASDSQEIKIQQPSKNPSVPMQKLQDIQRAMELLSACQGPARNIDEAAKHRYQFWDTQPVPKLDEVITSHGAIEPDKDNVRQEPYSLPQGFMWDTLDLSDAEVLKELYTLLNENYVEDDDNMFRFDYSPEFLLWALRPPGWLLQWHCGVRVSSNKKLVGFISAIPANIRIYDSVKKMVEINFLCVHKKLRSKRVAPVLIREITRRVNLEGIFQAVYTAGVVLPKPIATCRYWHRSLNPRKLVEVKFSHLSRNMTLQRTMKLYRLPDVTKTSGLRPMEPKDIKSVRELINTYLKQFHLAPVMDEEEVAHWFLPREHIIDTFVVESPNGKLTDFLSFYTLPSTVMHHPAHKSLKAAYSFYNIHTETPLLDLMSDALILAKSKGFDVFNALDLMENKTFLEKLKFGIGDGNLQYYLYNWRCPGTDSEKVGLVLQ
B4: His-26NMT2 (His-tagged caspase-cleaved, truncated human NMT2) (protein)
chain: GDNEEETEHAKGSPGGYLGAKKKKKKQKRKKEKPNSGGTKSDSASDSQEIKIQQPSKNPSVPMQKLQDIQRAMELLSACQGPARNIDEAAKHRYQFWDTQPVPKLDEVITSHGAIEPDKDNVRQEPYSLPQGFMWDTLDLSDAEVLKELYTLLNENYVEDDDNMFRFDYSPEFLLWALRPPGWLLQWHCGVRVSSNKKLVGFISAIPANIRIYDSVKKMVEINFLCVHKKLRSKRVAPVLIREITRRVNLEGIFQAVYTAGVVLPKPIATCRYWHRSLNPRKLVEVKFSHLSRNMTLQRTMKLYRLPDVTKTSGLRPMEPKDIKSVRELINTYLKQFHLAPVMDEEEVAHWFLPREHIIDTFVVESPNGKLTDFLSFYTLPSTVMHHPAHKSLKAAYSFYNIHTETPLLDLMSDALILAKSKGFDVFNALDLMENKTFLEKLKFGIGDGNLQYYLYNWRCPGTDSEKVGLVLQ

Target: T1, myristoylatable decapeptide corresponding to the N-terminal sequence of ct-Bid
T1 chain: GNRSSHSRLG

Row | Protein | NMT activity (filter-based peptide myristoylation assay) | NMT activity relative to full-length NMT2 (filter-based peptide myristoylation assay)
1 | B1 | both full-length and caspase cleaved truncated NMT1 and NMT2 were catalytically active when compared to the control | –
2 | B2 | both full-length and caspase cleaved truncated NMT1 and NMT2 were catalytically active when compared to the control | –
3 | B3 | both full-length and caspase cleaved truncated NMT1 and NMT2 were catalytically active when compared to the control | –
4 | B4 | both full-length and caspase cleaved truncated NMT1 and NMT2 were catalytically active when compared to the control | ˜3-fold (His-26NMT2) ... more activity when compared to full-length NMT2
